Data reported in patent publication US20250026814A1.
“And” between values parts separate entries of the source, which are not always exact repeats. Equal values may be shown once.

Biological target: spike BA.1 antigens
Experiment: ELISA (AUC)

B1: S626-161 (antibody, V domains shown)
VH: QLQLQESGPGLVKPSETLSLTCTVSGGSISSNNYYWGWIRQPPGKGLEWIGSIYYSGSTYYNPSLKSRVTMSVDTSKNQFSLKLSSVTAADTAVYHCARQGPNYYDRSGYYYVGPFDIWGQGTMVTVSS
VL: QSVLTQPPSVSAAPGQKVTISCSGSSSNIGNNSVSWYQHLPGTAPKLLIYENNERPSGIPDRFSGSKSGTSATLGITGLQTGDEADYYCETWDRSLSASFGTGTKVTVL
  fold reduced binding: 1.7 fold and 3.9 fold
